This note sets out measurements from the domain aggregation screens of Martell et al. (2025).

The nature of this data set: soluble fraction after stress (log2 fold change); higher = more stays soluble; pooled small domains, quantitative proteomics. The settings on record: stress: pH 4. The gist of the method: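 Small protein domains from pooled custom libraries were exposed to pH 4, then quantified with high-throughput quantitative proteomics. The fold change in how much of each domain remains soluble is read as aggregation propensity. It is given as log2, with higher values meaning more stayed soluble.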

Some results are limits rather than exact numbers.

As to “HMSKEKQILQLLQHGYSQRRIADTLSVSRNTVAKVAKAAIEHPVSSDSLDSIDELELHQKLFPEEVLI”, the “soluble fraction (log2)” value is -0.184. For “HMSKGKNEVIAYLKAHNDHRLTVAEILDGLKEEGISINRSTIYRNLDKLVENGDILAFKGKDSESAFYQYS”, the “soluble fraction (log2)” value is -0.643. Regarding “HMSKHLWNKVLPKVTTANITNLINQAIRKGEWRMDNKGVVHIIWRYRGKIIEVTGYLKDKVFNVGNAWVR”, the “soluble fraction (log2)” value is -0.134. The value for “HMSKITNALLMMKLLSNGKVYSVKELSEELGVTERMVRNYKEQLEMSGYIIESFKGPGGGYFINKN” was 0.207; that for “HMSKKAIVINLLKRPDGASLKDIMQATYWQAHSVRGFISGSLTKKMGLNVESFKRPDGERAYRIN” was 0.22; that for “HMSKLIDQELINFFKNQIESKSFRYGVSIEDSYEEIKSNQIKFYGEQEDKLKAIDNAFIELKRERAGIR” was -0.293.

Consider “HMSKNDLAGDEADVYKLLSVETGKPISDLVNRLPFGKSKTREILNTLAEKGFVYISGSGRGTKYHR”, for which the “soluble fraction (log2)” value is -0.403. The value for “HMSKNTFIGNIDDKELYVGSGRYGPFMLYDGKFTNITRYLSDESKELTDITIDDYSKIVNNARPK” was -1.5.

As for “HMSKNVTMPNLVGYSMRQAKAELLSRGLHLGKLIYVNDIATNNVISQLYRNAEIEPGVKIESESYVDLVVG”, the “soluble fraction (log2)” value was -0.631. As to “HMSKPTLTDELLTLDLFEEIIKAKENAKGANKRFSLVGFLESKYIVDQEMLPKVNVKVTEYYNLTREN”, the “soluble fraction (log2)” value was -1.8. Consider “HMSKPVVWIVGDSTVSAFTDNYYYPRYGWGTQIDKYLDGTFEVKNIALSGRSSTSYTADKEYGELIAG”, for which the “soluble fraction (log2)” value was determined as 0.0502. The value for “HMSKRIFPNEFQRNSPDAMVMLDKMNLSRINVDPLTKSLTLNGGGSVKTLLNGREVSAVEIAALSP” was 0.156; that for “HMSKSENLYSAARELIPGGVNSPVRAFTGVGGTPLFIEKADGAYLYDVDGKAYIDYVGSWGPMVLGHNHP” was -0.279. As for “HMSKSIEEIYDEAIRSLANEEYDSAKKLFSYLIDNFSDPEKLPLSLFWLGEIEFSSSNFDQSKIHYIE”, the “soluble fraction (log2)” value was -1. As for “HMSKSIGEALKEERRSLGLTQEQFIKGIISESFYSKVERGKNEIVAVDLLKILAANNISEEEFLSKLN”, the “soluble fraction (log2)” value is -0.168.

As to “HMSKSPELMEKIKEFAEGYFRENGETPSNKTIAGAMGMGRSTVYYYLVDMAQRGMISYENGVISTEKIRKL”, the “soluble fraction (log2)” value is -0.65. As for “HMSKTDYKILYSDLNREDAKQLSLLLEDKKIPYQTSEDGKTIKIPEGMVNRFRMEVATMGVNF”, the “soluble fraction (log2)” value is -0.014.

Take “HMSKTKDVLVQLMAERGLTQSDIARALSVRPQAVQQWVSGKTRPTGKNLEALAEFLQLPPAVIVHGP”: the “soluble fraction (log2)” value was determined as 0.344. The value for “HMSKTQVKSVLDDIKGIGVVRRKALIKHFNDIEAIKAAQLAELKAVAGMDSKSAQSVYDFFHK” was no less than 0.43; that for “HMSKYERVYTGSEINVNHLKSQLEDAGISSVVRNDHESAIRAGFGSDYDRGVLLFVEKDNLLRAKHIIEKT” was 0.0771. In the case of “HMSKYLAFTVKKNDELLPFIEKALNGISHTKAKAILANGGAMVNKNTITQYNYPLTPGMTVEISRH”, the “soluble fraction (log2)” value turned out to be 0.187. With “HMSLDLNENEKTIFDIIQNKKTIRLSELKIEAGLSNKGWDKAMKSLTKQGLAKVVKTEDQLTVKLL”, the “soluble fraction (log2)” value stood at 0.0483.

As to “HMSLEDNEVIQRMKVILDRFDEETAVDRTTAFKAVLDHIGKMDAESKTLEHMAEMLEALLDKVLEE”, the “soluble fraction (log2)” value is -0.371. On to “HMSLGPNAYGKPATALNILRETVMGKELFDHAFKTYSKRWMFKHPSPEDFFRTMEDASAVDLDWFWR”, for which the “soluble fraction (log2)” value turned out to be 0.22. The value for “HMSLGSQEYSIGFRNGDSTYHYIDKALKELAYEGVIDELSTQWFGSSRAVDFPSQKDALSELGYIA” was 0.22. The value for “HMSLGSSLFHARKKSGLTQEAVAEKLGVSRQTISKWETNETLPDIRQSKGLAMLYHMTLDELIE” was 0.138; that for “HMSLGTDVVPDFTGKGIKEAKTEFAAYSEGELYIIGEGEKVKEQFPLPGEKVNKNSDLILYV” was 0.0276. Take “HMSLIDLLQLNRKSKKLTLMNLVEMTGLSYGKVYRIFNGGIDKPTPDSLKLLAKALQLDYSYLFHKAGYL”: the “soluble fraction (log2)” value is 0.266. The value for “HMSLIEQKSQIPLVQGGQRVDKVAAALFTDFSRAELTGWIQQGALTLDGAVVKPKYKVLGGEWLYLRASQS” was -0.213; that for “HMSLNIIEITAKKEINELKSFNIIYFNFDKNNSIYEYKISEREKKEILEIEKIIKNSDNVTNYEIRYSF” was -0.685.

For “HMSLNQRIKEARIKMGYTQEQLGNLIGVAKTTISGYEKNREPDAATIGLIIDALKVDANFLFQ”, the “soluble fraction (log2)” value was -1.2.

As to “HMSLNSELIARIENLIASIEDKRSWGYGFAESVLGQVQAGATLSPRQLEIIAKLEKENSYSVQLERQ”, the “soluble fraction (log2)” value was -0.479. As for “HMSLPALSAEEQKIVDALHGTPKGVDDIIAETGISSGALLRSLTMLELKKVIVRLPGNRIAPK”, the “soluble fraction (log2)” value turned out to be 0.113. The value for “HMSLPDREVVLETSSDSYYHFKTDHFQRQITYSAVRNAPVRLVTISAERAFEVISLNRRGERPEHLE” was -1.77; that for “HMSLQEISDLISQAERADQEQLKEVLKQLHQVESGNQPMSKGFLSSALSTLNKYPALITSIGQLLFKLAT” was -0.723; that for “HMSLSEGVSADVVADVQARLMELGYMDEDDPDGNFSESTRIAVEHFQQQAGLPVTGTVDKATLDALNSPD” was -0.231. The value for “HMSLSQLGLTPRQTDVLALLLKGQPNKLIARELGLSVETVKDHVAAVLRALNVSSRTQAVIAVSQMLQ” was -0.533. The value for “HMSLSVEESYKLLDISPSAGDEEITKKFRLLALKYHPDKNRSKIEWANNIMSRLNQAYSVIMSSRFESNAE” was 0.211. For “HMSLTTKSVEETLGITRQTLHNWIKEGLLPAPKKDFRNWYIWSDEDLENLRNIIEQKTLINNKKQAV”, the “soluble fraction (log2)” value is -0.0603. On to “HMSMANKKDFILDTAQKLFMEQGFDQTSISQILEATQIARGTLYYYFSSKEEIMDAIIERTIEQ”, for which the “soluble fraction (log2)” value is -1.81. The value for “HMSMDYYNILGVNRNASTGEIKKAYKRASMQHHPDRGGNSDEFIKVQQAYDTLSDNHKRQAYDNP” was 0.0506.

As for “HMSMDYYSTLGVSKTASASDIKKAYRKLAMANHPDKGGDSAKFAKITEAYDVLKDPQKRNNYDQFGTA”, the “soluble fraction (log2)” value came to 0.399. The value for “HMSMEQAKAEEIEKLGDNAPERLQAAALFAEKFFPQDVMDAVYKITETADGVRAIEHIMQTVK” was -0.37; that for “HMSMISLPNFVGKDIETVKAWAKENGITLIINKVEDSAKKDTVISQNPTNSDYSKILKGSAFTVNIAKE” was 0.126. Take “HMSMRILNHTVVKILKRYRIATDEQLQPLLDEAERSGRSLQDVVLDAKLVSETELTKLFADYAD”: the “soluble fraction (log2)” value is 0.421. The value for “HMSMVGNIEKILVTGESKKSSELLAGRTENNRVVNFTGEKVLIGSMVNVRIEEVFPNSLGGSYLPS” was 0.0322; that for “HMSNAIDDAVEKVISENLDLAKERGLQSMGPLMGLVMKELGGTADGKAVSEALRRKISEISD” was 0.114. As for “HMSNEDAYIKLRNGFLATLSEADLLLFTLREEGKTQKEIADQLGYKTHSAVSKRLQTMRGQFEGYLKTQ”, the “soluble fraction (log2)” value is -0.818. The value for “HMSNEIIFNQKSITRFLMNPENNSPMIYPLELGHEMKVIKKNNDWLNVTDEKTGLNGWVISDDFGLTKPEG” was -0.133; that for “HMSNETLFEFFEKNISQLTPTLVDNINRSLAVHSKKNVKLAIMIAAKSNVRNWNYISAILNRWEKE” was -1.21; that for “HMSNIAQRLVLENALAKLNQEQQTIIDLRIIKGYSVAETARLLGKTESAVRTAQYRALKELAGILEED” was -0.0342. As for “HMSNIIIYPNPTNDGLIHIKGSKFPFNYALYNLSGKLIETGKKNQIQLNDRGVYLLKIQTEGQTYFKKII”, the “soluble fraction (log2)” value was -0.754. The value for “HMSNNILEISSNKKNMKIQENKNLVESYYSKTENLYSFKLVFKNKRDLDQFLKEVYEDDSTINYKTSS” was -0.524; that for “HMSNPPLPFLAKTKVSWTGEQDGDLGFLENEVVKVFHVVDELWWQGSLSRNGAEGIFPRDFVEVISAP” was -1.27. In the case of “HMSNSWSYSEFMKAVESGQVESVTISGQSIKGTSRGGQAFESVLPAFDDKLMDTLLVNDVEVIGEKP”, the “soluble fraction (log2)” value was -0.149. For the sequence “HMSNTGDIIRKLREESGVTAKELAHRIGLSASQMSRLESGKRRINSEVLTRIARALEVAPSQLID”, the “soluble fraction (log2)” value came to 0.17.

For “HMSNTIFGINGPVVTVASKDFSMQEMVYVGNERLVGEVISIDDDLTTIQVYEVTTGLKPGEPVVGTGSAM”, the “soluble fraction (log2)” value was -1.64. As to “HMSNVDYSQFKKDTVVEHTKFGRGIIIQTSGDGEDKIAAIAFKGLGVKRFSLAIAAASLKIIGKNDE”, the “soluble fraction (log2)” value came out at 0.194. The value for “HMSNYFIEISKDSLARINDEIELDVLRETSDTIIISQEEKTNTISSFIKVLFERQIDILSIQNR” was -1.25; that for “HMSNYYNILGVNKSSTQDEIKKAFRKKAVEHHPDKGGNEATFKKINEAYNTLSDNNKRHMYDMQQSG” was 0.267; that for “HMSPDALSNLPIGSEIKFTLWDGTEKRLVKHPAAYQFSRPFWMNLNEYTYVPVNRIPKNYEVIRL” was -0.0954. The value for “HMSPEVEEISIDHLKAGMRILSDLRLPNGTLVAPKGSVVDAHFIKIVENYVISYFGNPFPDRIKVIM” was 0.144; that for “HMSPEWTPAEQDAIDKASEGEYGEALQRVLSGDYEPMDIPDALWGVQQVADKDTYSSIQKKIADIGN” was 0.422; that for “HMSPIPLPVERAIHKLGSDISLARRRRHISQASLAERMGASLSTVRRMEKGDVRVPIHFFARALHVFG” was 0.158.

Consider “HMSPIQLKYNEYLIYIDEGKINTAEIHGNKITGKLKEGSEYVVTIYPELIASITEKLAENNVQTQLIQ”, for which the “soluble fraction (log2)” value was -0.466. Consider “HMSPLPDRESLGAIEKLISLLGSSEWTVREKATRELGAFGYLARPVLQRELATSGDPEVSRRLERILSNL”, for which the “soluble fraction (log2)” value was -0.00724. The value for “HMSPLTPEEAEVLRILGDHGDMTVDNIATEGKMSAAAVLRVLGVLSAYGLAVPSGPGRWGSRAA” was 0.152; that for “HMSPPPRPSHPEAAGLRHLAFEVDNIDDAVRHLDRLGVPHEPVRTDEYTGRRFLFFTDPDRLPLELYEK” was -0.572. As for “HMSPQIDYFDDEELDVYRQIAPEAYTDEQIEVFRDILYTLRPEEVEEWLISLEKREINLPLILRQEAIELI”, the “soluble fraction (log2)” value was found to be 0.156.
